Where “and” joins values, the source holds several entries; their conditions need not be identical. Identical values can stand only once. Like-named read-outs stand apart in the source and are kept apart here.
Tests used:
adenoviral infection = conditions: cited from earlier work
[1] = Lysostaphin PK study (serum lysostaphin activity assay); format: in vivo; conditions: Sprague Dawley rats, i.v. bolus 12 mg lysostaphin/Kg; lysostaphin 50% of carrier weight
Method: Four carriers were selected for PK study. CSPEG106G, HPPEG105G, 20PLPEG1030-DTPA, and 20PLPEG1030-DTPA-SO were loaded with Lysostaphin equivalent to 50% of the carrier weight. These formulations were obtained by dissolving together an appropriate amount of carrier and Lysostaphin in water and incubating for two hours followed by lyophilization. Each lyophilized formulation (including unformulated lysostaphin alone) was dissolved in saline and administered to Sprague Dawley rats (n=4) by slow (at least 1 min) i.v. bolus (12 mg lysostaphin/Kg) via the lateral tail vein. Blood samples were taken from the orbital sinus at 5 m, 15 m, 30 m, 60 m, 120 m, 4 h, 6 h, 24 h, 32 h (30 h), and 48 h and placed in tubes containing Protease Inhibitors (AEBSF, Aprotinin, E-64, EDTA, and Leupeptin). Sera were obtained by centrifugation at 13,000 rpm. All the sera were stored at −80° C. until used in the assay. 100 of serum was used in this assay for each time point. Lysostaphin's activity was measured by activity assay as follow: Stock buffer (10×) was prepared to contain 1M MOPS/10% Tween (by wt.)/5 mM EDTA/pH 7.3. The final reaction mixtures (2000) in black 96-well plate were prepared to contain 5 μg substrate, 100 mM MOPS, 1% Tween20, 0.5 mM EDTA, pH 7.3, and 100 of serum samples. The samples were added last and after addition the wells were mixed and bubbles in the solution was removed using pipette tip wet with ethanol. Fluorescence (Ex485 nm/Em535 nm) increase was monitored for two hours using Chameleon 96-well microplate fluorometer (Bioscan) every 7.5 minutes for 2 hours. The substrate gave fluorescence product when lysostaphin proteolytically cleaved it.

[2] = cited from earlier work; for Isoelectric Point: peptide or protein load molecule, Table 7; for isoelectric point (pI): stated in the description
[3] = rat, in vivo, 10 mg/kg
bacteria = conditions: cited from earlier work

Molecule | Isoelectric Point [2] | isoelectric point (pI) [2] | also measured
ACYCRIPACI-AGERRYGTCI-YQGRLWAFCC [HNP-1] |  |  | reduction of adenoviral infection (adenoviral infection): more than 95%
Lysostaphin: 25-kDa peptidase produced by Staphylococcus simulans, cleaves glycine-glycine bond of Staphylococcus aureus cell wall cross-bridge | 9.56 | 9-10 | AUC0 to last [1]: 64.2 hr (μg/ml); AUC0 to ∞ [1]: 67 hr (μg/ml); C0 [1]: 301 µg/mL; Mean residence time [1]: 0.984 h; Terminal t1/2 [1]: 1.53 h; isoelectric point (pI) ([2]; listed as lysostaphin): 9.56
Heparin-binding EGF: EGF-related growth factor that signals through the EGF receptor and binds heparin | 8.56 |  | 
erythropoietin without sialic acid: erythropoietin without sialic acid, listed as load molecule |  | 8.5 | 
H-RRRPRPPYLPRPRPPPFFPPRLPPRIPPGFPPRFPPRFP-OH [PR39] | 9.96 |  | level at 24 h [3]: 370 ng/mL; level at 48 h [3]: 30 ng/mL
GLP1: peptide load molecule with isoelectric point 5.4 used in Table 7 | 5.4 |  | 
Vascular endothelial growth factor |  | 8.0-9.5 | 
platelet derived growth factor |  | 8.5-10 | 
Fibroblast growth factor |  | 8.0-9.0 and 9.6 | 
(klaklak)2: synthetic 14 amino acid D-peptide, programmed cell death-inducing sequence (KLAKLAKKLAKLAK; D-amino acids, C-terminal amide) |  |  | concentration that kills bacteria relative to that required to kill eukaryotic cells (bacteria): 1%
Nerve growth factor: growth factor listed as basic protein load molecule |  | 8.5-9.5 | 
Interferon gamma: type II interferon with anti-viral and anti-scarring activity (protein, UniProt P01579 24-161, looked up) Interferon gamma: QDPYVKEAENLKKYFNAGHSDVADNGTLFLGILKNWKEESDRKIMQSQIVSFYFKLFKNFKDDQSIQKSVETIKEDMNVKFFNSNKKKRDDFEKLTNYSVTDLNVQRKAIHELIQVMAELSPAAKTGKRKRSQMLFRG |  | 8.5-9.5 | 
